Assay [1] concerns the target T1, soluble cynomolgus GPNMB (recombinant extracellular domain) (cynomolgus, UniProt Q14956 23-499 (human entry), limits assumed).
T1 chain: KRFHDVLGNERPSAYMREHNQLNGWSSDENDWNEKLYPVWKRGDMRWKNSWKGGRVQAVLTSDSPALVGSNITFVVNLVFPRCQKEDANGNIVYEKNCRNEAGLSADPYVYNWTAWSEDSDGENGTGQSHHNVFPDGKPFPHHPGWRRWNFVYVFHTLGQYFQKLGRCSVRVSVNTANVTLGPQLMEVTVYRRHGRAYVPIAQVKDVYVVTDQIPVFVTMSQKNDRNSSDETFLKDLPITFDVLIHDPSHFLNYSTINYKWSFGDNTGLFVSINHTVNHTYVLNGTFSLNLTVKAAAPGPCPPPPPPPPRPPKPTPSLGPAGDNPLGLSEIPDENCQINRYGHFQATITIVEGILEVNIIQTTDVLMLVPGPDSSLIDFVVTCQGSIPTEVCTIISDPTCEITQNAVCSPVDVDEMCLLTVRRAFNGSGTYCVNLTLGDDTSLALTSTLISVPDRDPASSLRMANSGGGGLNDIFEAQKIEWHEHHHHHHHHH
Put plainly: SPR binding. Here is the method: Binding kinetics of human anti-GPNMB IgG1 antibodies of the present disclosure to human, cynomolgus, and mouse GPNMB were evaluated using a Carterra LSA instrument (Carterra, Salt Lake City, UT). […] A HC200M sensor chip (Carterra) was activated using the single channel flow cell with a 7-minute injection of a 1:1:1 mixture of 100 mM MES pH 5.5, 100 mM sulfo-NHS, 400 mM EDC (all reconstituted in MES pH 5.5; 100 μl of each mixed in vial immediately before running assay). After switching to the multi-channel array flow cell, the antibodies were injected over the activated chip in a 96-spot array for 15 minutes. The remaining unconjugated active groups on the chip were then blocked by injecting 1M Ethanolamine pH 8.5 (Carterra) for 7 minutes using the single channel flow cell.
After priming with running buffer (HBS-EP+, Teknova) with 0.5 mg/ml BSA (Sigma), the immobilized anti-GPNMB antibodies were tested for their ability to bind to several forms of recombinant GPNMB extracellular domain, including human, cynomolgus, and mouse orthologs as described above. Estimates of affinity were generated by injecting each analyte over the entire antibody array using the single channel flow cell. GPNMB analytes were diluted to 2.5, 7.4, 22, 67, 200, and 600 nM in running buffer, and injected in serial from lowest to highest concentration without regeneration. Two buffer blanks were run between each series (one species per series). Data were processed and analyzed using Kinetics high-throughput kinetics analysis software (Carterra).
A general note: In SPR one partner is held on a chip, and binding of the other changes the refractive index at the surface.

Assay [2] addresses T2, soluble mouse GPNMB (recombinant extracellular domain) (mouse, UniProt Q99P91 23-502).
T2 construct: also called moGPNMB; not shown: C-terminal polyhistidine or Avi-His tag
T2 sequence: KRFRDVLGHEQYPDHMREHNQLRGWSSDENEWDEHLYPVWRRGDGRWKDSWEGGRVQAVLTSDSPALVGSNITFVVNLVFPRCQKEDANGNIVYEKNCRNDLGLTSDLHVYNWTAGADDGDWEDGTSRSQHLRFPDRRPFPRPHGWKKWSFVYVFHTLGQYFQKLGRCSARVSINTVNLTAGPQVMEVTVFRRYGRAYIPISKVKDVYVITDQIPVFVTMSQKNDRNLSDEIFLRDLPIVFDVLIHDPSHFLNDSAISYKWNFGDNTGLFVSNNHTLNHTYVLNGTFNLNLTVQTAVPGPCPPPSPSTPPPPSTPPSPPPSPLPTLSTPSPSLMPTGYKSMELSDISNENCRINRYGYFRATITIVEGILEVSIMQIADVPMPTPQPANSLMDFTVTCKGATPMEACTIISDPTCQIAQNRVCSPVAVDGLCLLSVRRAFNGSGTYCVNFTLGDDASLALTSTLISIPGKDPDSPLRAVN
Put plainly: SPR Carterra, Ab immobilized. In short, it runs like this: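 Antibodies amine-coupled on HC200M chip in a 96-spot array; recombinant GPNMB ECD analytes injected at 2.5–600 nM, lowest to highest, without regeneration. Running buffer HBS-EP+ with 0.5 mg/ml BSA; two buffer blanks between species series. Kinetics fitted to yield affinity estimates.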

For assay [3], the target named is T2, soluble mouse GPNMB (recombinant …). Put plainly: SPR Biacore, IgG captured.
Assay [4] addresses T3, soluble human GPNMB (recombinant extracellular domain) (human, UniProt Q14956 23-498).
T3 construct: also called huGPNMB; recombinant human GPNMB extracellular domain; not shown: C-terminal polyhistidine or Avi-His tag
T3 sequence: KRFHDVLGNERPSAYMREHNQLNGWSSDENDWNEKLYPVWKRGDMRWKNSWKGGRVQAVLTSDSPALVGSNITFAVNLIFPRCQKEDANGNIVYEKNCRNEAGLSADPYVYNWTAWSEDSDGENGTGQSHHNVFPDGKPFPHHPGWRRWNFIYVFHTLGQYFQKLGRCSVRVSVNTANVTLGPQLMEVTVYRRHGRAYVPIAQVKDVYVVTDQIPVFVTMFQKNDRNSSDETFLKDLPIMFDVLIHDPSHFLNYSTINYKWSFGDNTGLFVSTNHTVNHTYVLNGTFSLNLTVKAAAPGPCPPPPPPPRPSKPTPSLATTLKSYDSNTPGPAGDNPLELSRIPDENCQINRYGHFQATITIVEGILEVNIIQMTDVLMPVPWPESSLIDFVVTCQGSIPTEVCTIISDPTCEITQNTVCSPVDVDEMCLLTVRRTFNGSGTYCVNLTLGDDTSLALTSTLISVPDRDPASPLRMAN
Briefly: SPR Biacore, IgG captured.

The target in assay [5] is T1, soluble cynomolgus GPNMB (recombinant …). Briefly: SPR Biacore, IgG captured.

The record followed here is patent US20250270343A1 (Alector, published 2025).

B1: anti-GPNMB antibody GPN-38 (antibody, human IgG1, V domains shown)
VH: QVQLQQPGAELVRPGTSVRLSCKASGYTFTSYWIHWVKQRPGRGLEWIGVIDPSDSYTNYNQQFNVKATLTVDTSSSAAYMQLSSLTSEDSAVYYCARGLITAVNWYFDVWGTGTTVTVSS
VL: DIQMTQSPASLSTSVGEIVTITCRASENIYSYLTWYQQKQGKSPQLLVYNAKTLAEGVPSRFSGSGSGTQFSLKINSLQPEDFGTYYCQHHYGTPLTFGSGTKLEIK
notes: chimeric
Take B1: in assay [1], the binding result is recorded as “binds”. For the same molecule, in assay [2], the Kd was 3.45 nM, the off-rate (koff) worked out at 7.8e-05 s⁻¹ and the kon is 23000 M⁻¹ s⁻¹.

B2: anti-GPNMB antibody GPN-42 (antibody, human IgG1, V domains shown)
VH: DVKLVESGEDLVKPGGSLKLSCAASGFTFSSYAMSWVRQTPEKRLEWVAYISSGGDYIYYADTVKGRFTISRDNARNTLYLQMSSLKSEDTAMYYCTRDRYYDYDVRDYYTMDYWGQGTSVTVSS
VL: DVMMTQTPLSLPVSLGDQASISCRSSQSLVHSNGNTYLHWFLQKPGQSPKLLIFRVSNRFSGVPDRFSGRGSGTDFTLKISRVEAEDLGVYFCSQTTHVPRTFGGGTTLEIK
notes: chimeric
As to B2, the binding result in assay [1] is reported as “binds”.

B3: anti-GPNMB antibody GPN-52 (antibody, human IgG1, V domains shown)
VH: DVQLQESGPGLVKPSQTVFLTCTVTGISITTGNYRWSWIRQFPGNKLEWIGYIYYSGTITYNPSLTSRITITRDTPKNEFFLEMNSLTAEDTATYYCARDLTHWYFDVWGTGTTVTVSS
VL: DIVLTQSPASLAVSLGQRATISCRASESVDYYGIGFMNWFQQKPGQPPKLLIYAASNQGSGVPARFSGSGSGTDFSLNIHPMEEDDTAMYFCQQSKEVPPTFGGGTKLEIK
notes: chimeric
In the case of B3, in assay [2], the Kd worked out at 4.6 nM, the koff turned out to be 0.00082 s⁻¹ and the kon is 190000 M⁻¹ s⁻¹.

B4: anti-GPNMB antibody GPN-61 (antibody, human IgG1, V domains shown)
VH: DVQLQESGPGLVKPSQTVFLTCTVTGISITTGNYRWSWIRQFPGNKLEWIGYIYYSGTITYNPSLTSRTTITRDTPKNQFFLEMSSLTAEDTATYFCARDLRHWYFDVWGTGTTVTVSS
VL: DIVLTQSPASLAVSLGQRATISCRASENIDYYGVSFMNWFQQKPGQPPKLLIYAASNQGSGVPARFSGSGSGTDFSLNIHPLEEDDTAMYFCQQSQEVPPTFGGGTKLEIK
notes: chimeric
B4: in assay [2], the Kd stood at 2.1 nM, the koff amounted to 0.00029 s⁻¹ and the kon came to 130000 M⁻¹ s⁻¹.

B5: anti-GPNMB antibody GPN-35 (antibody, human IgG1, V domains shown)
VH: EVQLVESGGGSVRPGRSLKLSCAAAGFTFSDYYMTWVRQAPTKGLEWVASINHDGGGTYYRDSVKGRFTISRDNARSSLYLQMDSLRSEDTGTYYCTTRAGWHWGQGVMVTVSS
VL: DIQMTQSPASLSASLGETVSIECLASEDIYNYLTWYQQKPGKSPQVLIYSASGLQDGVPSRFSGSGSGRQYSLKINGLESEDAATYFCLQDSEYPLTFGSGTKLEIK
notes: chimeric
With B5, in assay [2], the Kd turned out to be 2.1 nM, the koff came out at 0.00012 s⁻¹ and the kon came to 56000 M⁻¹ s⁻¹.

B6: anti-GPNMB antibody GPN-48 (antibody, human IgG1, V domains shown)
VH: QVQLQQSGPELVKPGASVKLSCRASGYGFSSFWMNWVKQRPGKGLEWIGRIYPGKGDTLYNGKFKDKATLTADESSSTAYMQLSSLTSEDSAVYFCARSIYYYDYWYFDVWDTGTTVTVSS
VL: DIVMTQSHKFMSTSVGDRVNITCKASQDVNSAIAWYQQKPGQSPKLLIYSASYRFIGVPDRFTGSGSGTGFTFTISSVQAEDLAVYYCQQHYTTPLTFGAGTKLELK
notes: chimeric
Regarding B6, the binding result in assay [1] is reported as “binds”.

B7: anti-GPNMB antibody GPN-43 (antibody, human IgG1, V domains shown)
VH: EVQLQQSGPELVKPGASVKISCKASGYTFTDYYMNWVRQSHGKSLEWIGDINPYHGGSTYNQKIKVKATLTVDKSSSTAYMELRSLTSEDSAVYYCARNWPYFDYWGQGTTLTVSS
VL: DIQMTQSPASLSASVGETVTITCRASENIYSFLVWYQQKQGKSPQLLVYNAKTLAEGVPSRFSGSGSGTQFSLKISSLQPEDFGSYYCQHHFGTPPYTFGGGTKLEIK
notes: chimeric
In the case of B7, the binding result in assay [1] is “binds”.

B8: anti-GPNMB antibody GPN-86 (antibody, V domains shown)
VH: QVQLQESGPGLVKPSETLSLTCTVSGISITTGNYRWSWIRQPPGKGLEWIGYIDYSGTITYNPSLKSRVTITRDTSKNQFSLELSSVTAADTAVYYCARDLTHWYFDVWGQGTLVTVSS
VL: DIVMTQSPDSLAVSLGERATINCKSSRSVDYYGIGFLNWYQQKPGQPPKLLIYATSKQGSGVPDRFSGSGSGTDFTLTISSLQAEDVAVYYCQQQKEVPPTFGGGTKVEIK
For the molecule B8, in assay [3], the Kd was determined as 1.2 nM, the koff stood at 0.00023 s⁻¹ and the kon was determined as 190000 M⁻¹ s⁻¹. In addition, in assay [4], the Kd amounted to 4.5 nM, the koff is 0.0012 s⁻¹ and the kon was 260000 M⁻¹ s⁻¹. Besides, in assay [5], the Kd was found to be 5.5 nM, the koff came out at 0.0011 s⁻¹ and the kon worked out at 190000 M⁻¹ s⁻¹.

A word on the Kd: it is the constant that tells how readily two partners part at equilibrium. The koff is the first-order rate constant of dissociation. One may read the kon as the second-order rate constant of association.
